The nanobody polyreactivity screen of Harvey et al. (2022)

Assay: yeast display, Sf9 membrane polyspecificity reagent, FACS + sequencing; frameworks hold sequencing errors
How it was run: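 A synthetic nanobody library was expressed on Saccharomyces cerevisiae BJ5465 by galactose induction for 36–48 hours. The library was stained for 1 hour at 4 °C with 10% biotinylated, detergent-solubilized Sf9 membrane reagent and enriched with streptavidin microbeads before FACS. Low and high (top ~1%) gates were set on anti-HA fluorescence for expression and streptavidin fluorescence for reagent binding, and each polyreactivity label reflects the gate of origin.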
For “QVQLVESGGGLVQAGGSLRLSCAASGFTFYWYTMGWYRPAPGKERELVATISGSGGRTYYADSVKGRFTISRDNAKNTVYLQMNSLKPEDSAVYYCNAGRPYKYGYWGQGTQVTVSS”, the “polyreactivity (PSR sort gate)” value was “high polyreactivity”. With “QVQLVESGGGLVQAGGSLRLSCAASGFTFYYNAMGCYRQAPGKERELVAIRFRGGNTYYADSVKGRFTISRDNAKNTVYLQMNSLKPEDTAVYYCNADDRGSTYVDFDYWGQGTQVTVSS” the “polyreactivity (PSR sort gate)” value was “low polyreactivity”. With “QVQLVESGGGLVQAGGSLRLSCAASGFTFYYNAMGWYRQAPGKERELVASITRSGGRTYYADSVKGRFTISRDNAKNTVYLQMNSLKPEDTAVYYCARRYPGGYYWGQGTQVTVSS” the “polyreactivity (PSR sort gate)” value was “high polyreactivity”. With “QVQLVESGGGLVQAGGSLRLSCAASGFTFYYYAMGWYRQAPGKERELVAAISKSGGSTYYADSVKGRFTISRDNAKNTVYLQMNSLKPEDTAVYYCARDKGSSGKGHGYWGQGTQVTVSS” the “polyreactivity (PSR sort gate)” value was “high polyreactivity”. With “QVQLVESGGGLVQAGGSLRLSCAASGFTFYYYAMGWYRQAPGKERELVAAISSGGRTNYADSVKGRFTISRDNAKNTVYLQMNSLKPEDTAVYYCAAQYRNYFPYRVVRQGVGYWGQGTQVTVSS” the “polyreactivity (PSR sort gate)” value was “high polyreactivity”. In the case of “QVQLVESGGGLVQAGGSLRLSCAASGFTFYYYAMGWYRQAPGKERELVASISSRGGSTYYADSVKGRFTISRDNAKNTVYLQMNSLKPEDTAVYYCAARTRRYKFDYWGQGTQVTVSS”, the “polyreactivity (PSR sort gate)” value is reported as “high polyreactivity”. With “QVQLVESGGGLVQAGGSLRLSCAASGFTFYYYTLGWYRQAPGKVRELVARITTRGTSTYYADSVKGRFRISRDTPKNTVYLPMNSLKPEDTAVYYCAAQVGRGYEVYAVYKYGYWGQGTQVTVSS” the “polyreactivity (PSR sort gate)” value was “high polyreactivity”. For “QVQLVESGGGLVQAGGSLRLSCAASGFTFYYYTMGWYRQAPGKERELVAAITISGGSTYYADSVKGRFTISRDNAKNTVYLQMNSLKPEDSAVYYCNADYQWYLGGYDFWGQGTQVTVSS”, the “polyreactivity (PSR sort gate)” value was “high polyreactivity”. In the case of “QVQLVESGGGLVQAGGSLRLSCAASGFTIARNTMGWYRPAPGKERELVAAISGGGSTNYADSVKGRFTISRDNAKYTVYLQMNSLKPEDTAVYYCNADSNSDNNDYDYWGQGTQVTVSS”, the “polyreactivity (PSR sort gate)” value is reported as “low polyreactivity”. For “QVQLVESGGGLVQAGGSLRLSCAASGFTIDAYAMGWYRQAPGKERELVAAISDGGNTYYADSVKGRFTISRDNAKNTVYLQMNSLKPEDTAVYYCNVDWYSYWYYTYEKSSEWAMEYWGQGTQVTVSS”, the “polyreactivity (PSR sort gate)” value was “low polyreactivity”. For “QVQLVESGGGLVQAGGSLRLSCAASGFTIFSYAMGWYRQAPGKERELVAAISRRGGSTYYADSVKGRFTISRDNAKNTVYLQMNSLKPEDTAVYYCAAGPRWHTNGWAYDYWGQGTQVTVSS”, the “polyreactivity (PSR sort gate)” value was “high polyreactivity”. With “QVQLVESGGGLVQAGGSLRLSCAASGFTIGANNMGWYRQAPGKERELLAAISASGGSTYYADSVKGRFTISRDNAKNTVYLQMNSLKPEDTAVYYCAARRYPGRTATYYSWGQGTQVTVSS” the “polyreactivity (PSR sort gate)” value was “high polyreactivity”. With “QVQLVESGGGLVQAGGSLRLSCAASGFTIKYYAMGWYRQAPGKEREFVAAISSSGGRTYYADSVKVRFTISRDYAKNTVYLQMNSLKPEDTAVYYCAAAWGTYGYHYDYLGQGTQVTVSS” the “polyreactivity (PSR sort gate)” value was “low polyreactivity”. In the case of “QVQLVESGGGLVQAGGSLRLSCAASGFTIPTYAMVWYRQAPGKERELVAAITRGGSTYYADSVKGRFTISRDNAKYTVYLQMNSLKPEDTAVYYCAADDPWYEEDYWGQGTQVTVSS”, the “polyreactivity (PSR sort gate)” value is reported as “low polyreactivity”. For “QVQLVESGGGLVQAGGSLRLSCAASGFTISPYAMGWYRQAPGKERELVAAITRRSGSTYDADSVKGRFTISRDNAKNTVYLQMNSLKPEDTAVYYCNAKFYTAVYSYSLFNYWGQGTQVTVSS”, the “polyreactivity (PSR sort gate)” value was “high polyreactivity”. For “QVQLVESGGGLVQAGGSLRLSCAASGFTISRYNMGWYRQAPGKEREMVAAISGSGGSTYYADSVKGRFTISRDNAKNTVYLQMNSLKPEDTAVYYCNAVRNWYYTPWEMNYWGQGTQVTVSS”, the “polyreactivity (PSR sort gate)” value was “high polyreactivity”. For “QVQLVESGGGLVQAGGSLRLSCAASGFTITAYAMGWYRQAPGKERELVAAISYSGGRTYYADSVKGRFTISRDIAKNTVYLQMNSLKTEDTAVYYCYAVLAHYQSLVYWGQGSQVTVSS”, the “polyreactivity (PSR sort gate)” value was “high polyreactivity”. In the case of “QVQLVESGGGLVQAGGSLRLSCAASGFTITIYAMGWYRQAPGKERELVATISGRAGRTYYADSVKGRFTISRDNAKNTVYLQMNSLKPEDTAVYYCNAGQWRYPGLYYYWGQGTQVTVSS”, the “polyreactivity (PSR sort gate)” value is reported as “high polyreactivity”. For “QVQLVESGGGLVQAGGSLRLSCAASGFTITRYAMGWYRQAPGKERELVARITGRGGGTFYADSVKGRFTISRDNAKNTVYLQMNSLKPEDTAVYYCNTDYGSSYNYWGQGTQVTVSS”, the “polyreactivity (PSR sort gate)” value was “high polyreactivity”. For “QVQLVESGGGLVQAGGSLRLSCAASGFTIVPYAMGWYRQAPGKERELVAAITSGGSTYYADSVKGRFTISRDNAKNTVYLQMNSLKPEDTAVYYCNRGRYRRRYTYSQYDYWGQGTQVTVSS”, the “polyreactivity (PSR sort gate)” value was “high polyreactivity”. With “QVQLVESGGGLVQAGGSLRLSCAASGFTIYGYAMGGDRQAPGPERELVAAITSRGGSTYYADSVKGRFTISRDNAKNTVYLQMNSLKPEDTAVYYCSKASGIYLGSRYYDVPMDYWGQGTQVTVSS” the “polyreactivity (PSR sort gate)” value was “high polyreactivity”. For “QVQLVESGGGLVQAGGSLRLSCAASGFTIYGYVMGWYRQAPGKVRELVAAISYSAGRTYYADSVKGRFTISRDNAKNTVYLQMNSLKPEDTAVYYCNAPSVGAAFDYCGQGTQVTVSS”, the “polyreactivity (PSR sort gate)” value was “high polyreactivity”. In the case of “QVQLVESGGGLVQAGGSLRLSCAASGFTIYPYAMGWYRQAPGKERELVAAISQRGGRTSYADSVKGRFTISRDNAKNTVYLQMNSLKPEDTAVYYCAARFWATEGYWGQGTQVTVSS”, the “polyreactivity (PSR sort gate)” value is reported as “high polyreactivity”. For “QVQLVESGGGLVQAGGSLRLSCAASGFTIYRYAMGWYRQAPGKERELVAAITSRGGSTYYADSVKGRFTISRDNAKNTVYLQMNSLKPEDTAVYYCAAAGYYPAYDYWGQGTQVTVSS”, the “polyreactivity (PSR sort gate)” value was “high polyreactivity”. For “QVQLVESGGGLVQAGGSLRLSCAASGFTLAFYGMGRSRQAPGKERELVAAISRSGGSTYYADSVKGRFTISRDNAKNTVYLQMNSLKPEDTAVYYCAAAFRAGDVYGYYWGQGTQVTVSS”, the “polyreactivity (PSR sort gate)” value was “high polyreactivity”. With “QVQLVESGGGLVQAGGSLRLSCAASGFTLARYAMGWYRQAPGKEREFVAAITNGGRTNYADSVKGRFTISRDNAKNTVYLQMNSLKPEDTAVYYCAARYRFGGIRRYNYWGQGTQVTVSS” the “polyreactivity (PSR sort gate)” value was “high polyreactivity”. With “QVQLVESGGGLVQAGGSLRLSCAASGFTLAWNAMGWYRQAPGKERELVATISRSGSSTSYADSVKGRFTISRDTAKNTVYLQMNSLKPEDTAVYYCAADRYTVRMDYWGQGTQVTVSS” the “polyreactivity (PSR sort gate)” value was “high polyreactivity”. In the case of “QVQLVESGGGLVQAGGSLRLSCAASGFTLDKYAMGSNRQAPGTERELVAAINWSGGSTYYADSVKGRFTISRDNAKNTVYLQMNSLKPEDTAVYYCNAQAYRRRRYYYWGQGTQVTVSS”, the “polyreactivity (PSR sort gate)” value is reported as “high polyreactivity”. In the case of “QVQLVESGGGLVQAGGSLRLSCAASGFTLDVYVMGWYRPAPGKERELVAAIRDSDDDTSYADSVKGRFTISRDNAKNTVYLQMNSLKPEDTAVYYCAVDYPTQPWGYYLLMDYWGQGTQVTVSS”, the “polyreactivity (PSR sort gate)” value is reported as “low polyreactivity”. In the case of “QVQLVESGGGLVQAGGSLRLSCAASGFTLEDYTMGWYRQAPGKERELVARITSGGSTNYADSVKGRFTISRDNAKNTVYLQMKSLKPEDTAVYYCNARYAWINMDYWGQGTQVTVSS”, the “polyreactivity (PSR sort gate)” value is reported as “low polyreactivity”. In the case of “QVQLVESGGGLVQAGGSLRLSCAASGFTLFTNAMGWYRQAPGKERELLARISLGGSTKYADSVKGRFTISRDNAKNTVYVQMNSLKPEDTAVYYCATGYYGYRYGYWGQATQVTVSS”, the “polyreactivity (PSR sort gate)” value is reported as “high polyreactivity”. For “QVQLVESGGGLVQAGGSLRLSCAASGFTLFVYTMGWYRQAPGKERELVAAISSGDSTYYADSVKGRFTISRDNAKNTVYLQMNSLKPEDTAVYYCAAEWSGEAAWQVGAEDDYWGQGTQVTVSS”, the “polyreactivity (PSR sort gate)” value was “low polyreactivity”. With “QVQLVESGGGLVQAGGSLRLSCAASGFTLFYNAMGWYRQAPGKERELVAAITARGGGTYYADSVKGRFTISRDNAKNTVYLQMNSLKPEDTAVYYCNAGQNQRVDRTDPYDYWGQGTQVTVSS” the “polyreactivity (PSR sort gate)” value was “low polyreactivity”. In the case of “QVQLVESGGGLVQAGGSLRLSCAASGFTLGFNAMGWYRQAPGKERELVAAITIGGTTYYADSVKGRFTISRDNAKNTVYLQMNSLKPEDTAVYYCAAARFLWFYVYTTRVQRYGYWGQGTQVTVSS”, the “polyreactivity (PSR sort gate)” value is reported as “low polyreactivity”. With “QVQLVESGGGLVQAGGSLRLSCAASGFTLGGNAMGWYRQAPGKERELVAAITFSGGSTYYADSVKGRFTISRDNAKNIVYLQMNSLKPEDTAVYYCAKTHGYYYYYTYDYWGQGTQVTVSS” the “polyreactivity (PSR sort gate)” value was “low polyreactivity”. In the case of “QVQLVESGGGLVQAGGSLRLSCAASGFTLGWYAKGWYRQAPGKERELVASINWDGGSTYYADSVKVRFTISRDNAKNTVYLPMNSLKAEDTAVDYWAAPPGGGGGIGYDSWGQGTQVTVSS”, the “polyreactivity (PSR sort gate)” value is reported as “high polyreactivity”. For “QVQLVESGGGLVQAGGSLRLSCAASGFTLGWYVMGWYRQAPGKERELVAGISWSGGNTYYADSVKGRFTISRDNAKNTVYLQMHSLKPEDTAVYYCNADRTYPDYDYWGQGTQVTVSS”, the “polyreactivity (PSR sort gate)” value was “low polyreactivity”. In the case of “QVQLVESGGGLVQAGGSLRLSCAASGFTLGYYTMGWYRQAPGKERELVAAIRSNGGSTYYADSVKGRFTISRDNAKNTVYLQMNSLKPEDTAVYYCAADHAYFLTHSSYLFYYWGQGTQVTVSS”, the “polyreactivity (PSR sort gate)” value is reported as “high polyreactivity”. In the case of “QVQLVESGGGLVQAGGSLRLSCAASGFTLHSYAMGWYRQAPGKERELVAAITTGGSTYYADSVKGRFTISRDNAKNTVYLQMNSLKPEDTAVYYCAAEDPGPYGGYDYWGQGTQVTVSS”, the “polyreactivity (PSR sort gate)” value is reported as “low polyreactivity”. With “QVQLVESGGGLVQAGGSLRLSCAASGFTLLGYAMGWYRQAPGKERELVAAISRGGNTYYADSVKGRFTISRDNAKNTVYLQMNSLKPEDTAVYNCAAQTYSTGYVTRFNYWGQGTQVTVSS” the “polyreactivity (PSR sort gate)” value was “high polyreactivity”. In the case of “QVQLVESGGGLVQAGGSLRLSCAASGFTLLPNALGWYRQAPGKERELVAAITASGGRTYYADSVKGRFSISRDNAKNTVYLLMKSLKPVDTAVYDCTAGVYYYTPYTRMDYWGQGTQVTVAS”, the “polyreactivity (PSR sort gate)” value is reported as “low polyreactivity”. In the case of “QVQLVESGGGLVQAGGSLRLSCAASGFTLLTYVMGWYIQAPGKERELVAAISKSGSRTYYADSVKGRFTISRDNAKNTVYLQMNSLKPEDTAVYYCAADTSAYRYDYWGQGTQVTVSS”, the “polyreactivity (PSR sort gate)” value is reported as “high polyreactivity”. In the case of “QVQLVESGGGLVQAGGSLRLSCAASGFTLLTYVMGWYRQAPGKERELVAAITSSGGRTYYADSVKGRFTISRDNAKNTVYLQMNSLKPEDTAVYYCAAVGWGSSYRARYGYWGQGTQVTVSS”, the “polyreactivity (PSR sort gate)” value is reported as “high polyreactivity”.
